Results as given in publication PMC9352680, “A comprehensive thermodynamic model for RNA binding by the Saccharomyces cerevisiae Pumilio protein PUF4”.

T1: PUF4 RNA-binding domain (Saccharomyces cerevisiae, UniProt P25339 537-888)
T1 sequence: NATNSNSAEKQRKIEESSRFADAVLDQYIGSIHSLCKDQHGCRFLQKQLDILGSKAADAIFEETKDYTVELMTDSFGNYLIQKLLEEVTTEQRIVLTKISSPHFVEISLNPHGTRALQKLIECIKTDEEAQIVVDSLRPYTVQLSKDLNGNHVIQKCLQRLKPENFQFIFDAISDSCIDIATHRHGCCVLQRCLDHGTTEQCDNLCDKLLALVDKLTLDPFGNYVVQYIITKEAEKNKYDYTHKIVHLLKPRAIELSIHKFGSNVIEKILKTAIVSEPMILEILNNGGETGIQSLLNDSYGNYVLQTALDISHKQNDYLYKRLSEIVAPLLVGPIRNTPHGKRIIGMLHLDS


The binders below were run against T1, PUF4 RNA-binding domain (assay: Mg; RNA-MaP; 20 mM Na-HEPES pH 7.4, 30 mM KOAc, 0.75 mM MgCl2, 0.1% Tween-20, 5% glycerol, 0.1 mg/mL BSA, 2 mM DTT; 25 C; 0.0125-409.6 nM protein). Settings: tags: N-His6-TEV cleaved; C-SNAP kept, Cy3B-labelled; label: tethered on chip by stalled RNA polymerase.

Binder	Kd [nM]
UCUCUUGCUGUAUAUUAAUUCUCUU (ssRNA) [Id_ii_S1_P4E.2_K4.1_C4.2_[C-2G]_[T-1C]_H4.1_A4.1_F4.1_T4.2_[G10A]]	2.69
UCUCUUGUUGUAUAUUAUGUCUCUU (ssRNA) [Id_ii_S1_P4E.2_K4.1_C4.2_[C-2G]_H4.1_A4.1_F4.1_T4.2_[G10T]_[T11G]]	1.07
UCUCUUUGUGUAUAUUAAAUCUCUU (ssRNA) [Id_ii_S1_P4E.2_K4.1_C4.2_[C-2T]_[T-1G]_H4.1_A4.1_F4.1_T4.2_[G10A]_[T11A]]	1.47
UCUCUUGUUGUAUAUUAAAUCUCUU (ssRNA) [Id_ii_S1_P4E.2_K4.1_C4.2_[C-2G]_H4.1_A4.1_F4.1_T4.2_[G10A]_[T11A]]	1.78
UCUCUUCAACACUAUAAAUCUCUU (ssRNA) [Id_ii_S1_P3E.4_K3.3_C3.2_[T-1A]_H3.3_A3.1_F3.1_T3.2_[T9A]]	> 2300
UCUCUUCUACACUAUAUGUCUCUU (ssRNA) [Id_ii_S1_P3E.4_K3.3_C3.2_H3.3_A3.1_F3.1_T3.2_[A10G]]	1320
UCUCUUCUACACUAUAUAUCUCUU (ssRNA) [If_S1_P3E.4_K3.3_C3.2_H3.3_A3.1_F3.1_T3.2]	1000
UCUCUUUCUGUAUAUUAGUUCUCUU (ssRNA) [Id_ii_S1_P4E.2_K4.1_C4.2_[C-2T]_[T-1C]_H4.1_A4.1_F4.1_T4.2]	0.308
UCUCUUUAUGUAUAUUAACUCUCUU (ssRNA) [Id_ii_S1_P4E.2_K4.1_C4.2_[C-2T]_[T-1A]_H4.1_A4.1_F4.1_T4.2_[G10A]_[T11C]]	1.35
UCUCUUCGACACUAUAAUUCUCUU (ssRNA) [Id_ii_S1_P3E.4_K3.3_C3.2_[T-1G]_H3.3_A3.1_F3.1_T3.2_[T9A]_[A10T]]	> 2300
UCUCUUGUUGUAUAUUAAUUCUCUU (ssRNA) [Id_ii_S1_P4E.2_K4.1_C4.2_[C-2G]_H4.1_A4.1_F4.1_T4.2_[G10A]]	1.25
UCUCUUCAACACUAUAACUCUCUU (ssRNA) [Id_ii_S1_P3E.4_K3.3_C3.2_[T-1A]_H3.3_A3.1_F3.1_T3.2_[T9A]_[A10C]]	> 2300
UCUCUUCCACACUAUAAUUCUCUU (ssRNA) [Id_ii_S1_P3E.4_K3.3_C3.2_[T-1C]_H3.3_A3.1_F3.1_T3.2_[T9A]_[A10T]]	> 2300
UCUCUUGCUGUAUAUUAUGUCUCUU (ssRNA) [Id_ii_S1_P4E.2_K4.1_C4.2_[C-2G]_[T-1C]_H4.1_A4.1_F4.1_T4.2_[G10T]_[T11G]]	2.24
UCUCUUCUACACUAUAGUUCUCUU (ssRNA) [Id_ii_S1_P3E.4_K3.3_C3.2_H3.3_A3.1_F3.1_T3.2_[T9G]_[A10T]]	> 2300
UCUCUUUCUGUAUAUUAUGUCUCUU (ssRNA) [Id_ii_S1_P4E.2_K4.1_C4.2_[C-2T]_[T-1C]_H4.1_A4.1_F4.1_T4.2_[G10T]_[T11G]]	0.963

Binder	Kd [nM]
UCUCUUCAACACUAUAGAUCUCUU (ssRNA) [Id_ii_S1_P3E.4_K3.3_C3.2_[T-1A]_H3.3_A3.1_F3.1_T3.2_[T9G]]	> 2300
UCUCUUGCUGUAUAUUAACUCUCUU (ssRNA) [Id_ii_S1_P4E.2_K4.1_C4.2_[C-2G]_[T-1C]_H4.1_A4.1_F4.1_T4.2_[G10A]_[T11C]]	1.52
UCUCUUUCUGUAUAUUAAAUCUCUU (ssRNA) [Id_ii_S1_P4E.2_K4.1_C4.2_[C-2T]_[T-1C]_H4.1_A4.1_F4.1_T4.2_[G10A]_[T11A]]	1.06
UCUCUUUCUGUAUAUUACUUCUCUU (ssRNA) [Id_ii_S1_P4E.2_K4.1_C4.2_[C-2T]_[T-1C]_H4.1_A4.1_F4.1_T4.2_[G10C]]	0.672
UCUCUUUGUGUAUAUUAUUUCUCUU (ssRNA) [Id_ii_S1_P4E.2_K4.1_C4.2_[C-2T]_[T-1G]_H4.1_A4.1_F4.1_T4.2_[G10T]]	0.848
UCUCUUCCACACUAUACUUCUCUU (ssRNA) [Id_ii_S1_P3E.4_K3.3_C3.2_[T-1C]_H3.3_A3.1_F3.1_T3.2_[T9C]_[A10T]]	> 2300
UCUCUUUCUGUAUAUUACCUCUCUU (ssRNA) [Id_ii_S1_P4E.2_K4.1_C4.2_[C-2T]_[T-1C]_H4.1_A4.1_F4.1_T4.2_[G10C]_[T11C]]	0.848
UCUCUUCCACACUAUACAUCUCUU (ssRNA) [Id_ii_S1_P3E.4_K3.3_C3.2_[T-1C]_H3.3_A3.1_F3.1_T3.2_[T9C]]	> 2300
UCUCUUCUACACUAUACAUCUCUU (ssRNA) [Id_ii_S1_P3E.4_K3.3_C3.2_H3.3_A3.1_F3.1_T3.2_[T9C]]	2230
UCUCUUGCUGUAUAUUAUUUCUCUU (ssRNA) [Id_ii_S1_P4E.2_K4.1_C4.2_[C-2G]_[T-1C]_H4.1_A4.1_F4.1_T4.2_[G10T]]	1.28
UCUCUUUUUAUAAUAUCUCUU (ssRNA) [Ib_S1_P4E.1_K4.1_C4.1_H4.1_[G2T]_A4.1_[T7A]_F4.1_T4.1]	1450
UCUCUUCCACACUAUACCUCUCUU (ssRNA) [Id_ii_S1_P3E.4_K3.3_C3.2_[T-1C]_H3.3_A3.1_F3.1_T3.2_[T9C]_[A10C]]	> 2300
UCUCUUGCUGUAUAUUACCUCUCUU (ssRNA) [Id_ii_S1_P4E.2_K4.1_C4.2_[C-2G]_[T-1C]_H4.1_A4.1_F4.1_T4.2_[G10C]_[T11C]]	0.957
UCUCUUUAUGUAUAUUAUUUCUCUU (ssRNA) [Id_ii_S1_P4E.2_K4.1_C4.2_[C-2T]_[T-1A]_H4.1_A4.1_F4.1_T4.2_[G10T]]	1.07
UCUCUUCUACACUAUAGCUCUCUU (ssRNA) [Id_ii_S1_P3E.4_K3.3_C3.2_H3.3_A3.1_F3.1_T3.2_[T9G]_[A10C]]	> 2300
UCUCUUUCUGUAUAUUAUUUCUCUU (ssRNA) [Id_ii_S1_P4E.2_K4.1_C4.2_[C-2T]_[T-1C]_H4.1_A4.1_F4.1_T4.2_[G10T]]	0.502
